Laboratory results taken from patent publication US20260209348A1 (University of California, published 2026).
Like-named read-outs stand apart in the source and are kept apart here.

How the values were obtained:
human ROR2 [1] = biological target: T1, human ROR2 (human, UniProt Q01974 34-403, limits assumed); test: SPR
Outline: (§1)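 Humanized anti-human ROR2 monoclonal antibodies were tested for binding to human ROR2 by surface plasmon resonance. The antibodies were made by grafting murine complementarity-determining regions into human acceptor frameworks, with the constant region converted to human IgG1. Binding affinity is reported as the dissociation constant (Kd) in nM. Antigen format, concentrations, temperature, buffer and replicates are not stated.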

[2] = biological target: T2, recombinant human ROR2 D354E (human, UniProt Q01974 34-403); test: dot blot on nylon membrane, anti-human IgG-HRP
[3] = biological target: T3, recombinant human ROR2 H349R (human, UniProt Q01974 34-403); test: dot blot on nylon membrane, anti-human IgG-HRP
T3 construct: Human residue replaced with the mouse residue

[4] = biological target: T4, recombinant mouse ROR2 (extracellular portion) (mouse, UniProt Q9Z138 34-403); test: dot blot on nylon membrane, anti-human IgG-HRP
T4 construct: also called mROR2

recombinant ROR1 [5] = biological target: T5, recombinant ROR1 (Homo sapiens (Human), UniProt Q01973 30-406); test: dot blot on nylon membrane, anti-human IgG-HRP
human ROR2 [6] = biological target: T1, human ROR2; test: SPR; remark: listed apart in the source
Outline: as §1

[7] = biological target: T2, recombinant human ROR2 D354E; test: dot blot of arrayed recombinant proteins (key on the sheet)
[8] = biological target: T3, recombinant human ROR2 H349R; test: as above
[9] = biological target: T4, recombinant mouse ROR2 (extracellular …); test: as above
recombinant ROR1 [10] = biological target: T5, recombinant ROR1; test: as above

T3 sequence (Q01974 34-403 H349R limits assumed): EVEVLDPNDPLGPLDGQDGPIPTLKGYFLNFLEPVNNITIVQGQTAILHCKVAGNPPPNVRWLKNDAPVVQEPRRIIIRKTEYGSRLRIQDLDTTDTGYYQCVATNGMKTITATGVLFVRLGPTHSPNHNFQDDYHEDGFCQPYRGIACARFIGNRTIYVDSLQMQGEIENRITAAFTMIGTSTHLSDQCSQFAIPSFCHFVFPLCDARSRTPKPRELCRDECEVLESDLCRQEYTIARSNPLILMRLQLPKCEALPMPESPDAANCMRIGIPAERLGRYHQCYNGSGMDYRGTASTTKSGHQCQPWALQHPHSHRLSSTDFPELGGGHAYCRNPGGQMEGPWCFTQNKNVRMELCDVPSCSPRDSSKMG
T5 sequence (Q01973 30-406 limits assumed): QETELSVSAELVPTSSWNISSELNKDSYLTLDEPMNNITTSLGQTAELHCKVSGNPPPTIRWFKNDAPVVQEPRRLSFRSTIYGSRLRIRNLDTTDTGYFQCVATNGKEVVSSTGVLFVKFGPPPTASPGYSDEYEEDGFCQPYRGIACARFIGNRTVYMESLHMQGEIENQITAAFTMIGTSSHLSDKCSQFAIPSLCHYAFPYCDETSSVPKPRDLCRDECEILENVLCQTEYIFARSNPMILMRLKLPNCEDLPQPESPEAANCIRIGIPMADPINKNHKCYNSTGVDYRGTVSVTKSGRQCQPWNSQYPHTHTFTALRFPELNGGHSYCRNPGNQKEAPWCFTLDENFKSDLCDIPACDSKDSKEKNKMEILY
T4 sequence (Q9Z138 other isoform, or with tags, fused parts or gaps limits assumed): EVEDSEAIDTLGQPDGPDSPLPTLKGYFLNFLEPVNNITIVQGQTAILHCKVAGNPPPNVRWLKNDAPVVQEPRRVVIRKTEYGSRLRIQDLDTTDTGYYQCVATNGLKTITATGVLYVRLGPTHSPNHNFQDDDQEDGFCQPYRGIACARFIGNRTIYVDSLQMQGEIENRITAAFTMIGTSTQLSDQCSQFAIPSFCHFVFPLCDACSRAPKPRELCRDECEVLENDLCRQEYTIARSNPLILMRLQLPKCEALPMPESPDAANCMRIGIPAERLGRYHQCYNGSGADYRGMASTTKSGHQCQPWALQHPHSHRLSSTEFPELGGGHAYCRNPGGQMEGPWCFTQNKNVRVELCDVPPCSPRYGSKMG
T2 sequence (Q01974 34-403 D354E limits assumed): as the sequence (Q01974 34-403 H349R limits assumed) above, with R316H, D321E counted along it
T1 sequence (Q01974 34-403 limits assumed): as the sequence (Q01974 34-403 H349R limits assumed) above, with R316H counted along it

Binder | Kd (human ROR2 [1]) | binding result [2] | binding result [3] | binding result [4] | binding result (recombinant ROR1 [5]) | Kd (human ROR2 [6]) | binding result [7] | binding result [8] | binding result [9] | binding result (recombinant ROR1 [10])
h6E6-040 (antibody, human IgG1, V domains shown, human IgG1; also called clone 40) VH: EVQLVESGGGLVKPGGSLRLSCAASGFTFSSYGHSWVRQAPGKGLEWVSTISSGGGYTHYAPSVKGRFTISRDNAKNSLYLQMNSLRAEDTAVYYCARHPRDFSYAHDYWGQGTTVTVSS VL: EIVMTQSPATLSVSPGERATLSCRASQDVGHYVAWYQQKPGQAPRLLIYWASTRATGIPARFSGSGSGTEFTLTISSLQSEDFAVYYCQQYNIYPWTFGQGTKVEIK | 0.186 nM | no binding | no binding | no binding | no binding | 0.186 nM |  |  |  | 
h6E6-057 (antibody, human IgG1, V domains shown, human IgG1; also called clone 57) VH: EVQLVESGGGLVKPGGSLRLSCAASGFTFSHYGVSWVRQAPGKGLEWVSTISSGGGYTHYVASVKGRFTISRDNAKNSLYLQMNSLRAEDTAVYYCARHPRDFSYALDYWGQGTTVTVSS VL: EIVMTQSPATLSVSPGERATLSCKASQDVGHYVAWYQQKPGQAPRLLIYWASTRATGIPARFSGSGSGTEFTLTISSLQSEDFAVYYCQQYNIYPWAFGQGTKVEIK | 0.463 nM | no binding | no binding | no binding | no binding | 0.463 nM |  |  |  | 
h6E6-063 (antibody, human IgG1, V domains shown, human IgG1; also called clone 63) VH: EVQLVESGGGLVKPGGSLRLSCAASGFTFSAYGTSWVRQAPGKGLEWVSTISSGGGYTYYAASVKGRFTISRDNAKNSLYLQMNSLRAEDTAVYYCARHPRDFSYAIDYWGQGTTVTVSS VL: EIVMTQSPATLSVSPGERATLSCRASQDVGHYLAWYQQKPGQAPRLLIYWASTRATGIPARFSGSGSGTEFTLTISSLQSEDFAVYYCQQYNIYPWTFGQGTKVEIK | 0.475 nM |  |  |  |  | 0.475 nM | no binding | no binding | no binding | no binding
h6E6-055 (antibody, human IgG1, V domains shown, human IgG1; also called clone 55) VH: EVQLVESGGGLVKPGGSLRLSCAASGFTFSQYGHSWVRQAPGKGLEWVSTISSGGGYTHYAESVKGRFTISRDNAKNSLYLQMNSLRAEDTAVYYCARHPRDFSYAQDYWGQGTTVTVSS VL: EIVMTQSPATLSVSPGERATLSCKASQDVGHYLAWYQQKPGQAPRLLIYWASTRATGIPARFSGSGSGTEFTLTISSLQSEDFAVYYCQQYNIYPWTFGQGTKVEIK | 0.261 nM | no binding | no binding | no binding | no binding | 0.261 nM |  |  |  | 
h6E6-058 (antibody, human IgG1, V domains shown, human IgG1; also called clone 58) VH: EVQLVESGGGLVKPGGSLRLSCAASGFTFSVYGLSWVRQAPGKGLEWVSTISSGGGYTQYAPSVKGRFTISRDNAKNSLYLQMNSLRAEDTAVYYCARHPRDFSYAFDYWGQGTTVTVSS VL: EIVMTQSPATLSVSPGERATLSCKASQDVGHYLAWYQQKPGQAPRLLIYWASTRATGIPARFSGSGSGTEFTLTISSLQSEDFAVYYCQQYNIYPWTFGQGTKVEIK | 0.187 nM |  |  |  |  | 0.187 nM | no binding | no binding | no binding | no binding
h6E6-066 (antibody, human IgG1, V domains shown, human IgG1; also called clone 66) VH: EVQLVESGGGLVKPGGSLRLSCAASGFTFSAYGSSWVRQAPGKGLEWVSTISSGGGYTHYAPSVKGRFTISRDNAKNSLYLQMNSLRAEDTAVYYCARHPRDFSYAHDYWGQGTTVTVSS VL: EIVMTQSPATLSVSPGERATLSCKASQDVGHYVAWYQQKPGQAPRLLIYWASTRHTGIPARFSGSGSGTEFTLTISSLQSEDFAVYYCQQYNIYPWTFGQGTKVEIK | 0.353 nM | no binding | no binding | no binding | no binding | 0.353 nM |  |  |  | 
h6E6-068 (antibody, human IgG1, V domains shown, human IgG1; also called clone 68) VH: EVQLVESGGGLVKPGGSLRLSCAASGFTFSSYGISWVRQAPGKGLEWVSTISSGGGYTHYAHSVKGRFTISRDNAKNSLYLQMNSLRAEDTAVYYCARHPRDFSYALDYWGQGTTVTVSS VL: EIVMTQSPATLSVSPGERATLSCKASQDVGHYLAWYQQKPGQAPRLLIYWASTRATGIPARFSGSGSGTEFTLTISSLQSEDFAVYYCQQYNIYPWTFGQGTKVEIK | 0.362 nM | no binding | no binding | no binding | no binding | 0.362 nM |  |  |  | 
h6E6-056 (antibody, human IgG1, V domains shown, human IgG1; also called clone 56) VH: EVQLVESGGGLVKPGGSLRLSCAASGFTFSKYGTSWVRQAPGKGLEWVSTISSGGGYTHYAPSVKGRFTISRDNAKNSLYLQMNSLRAEDTAVYYCARHPRDFSYAQDYWGQGTTVTVSS VL: EIVMTQSPATLSVSPGERATLSCRASQDVGHYVAWYQQKPGQAPRLLIYWASTRATGIPARFSGSGSGTEFTLTISSLQSEDFAVYYCQQYNIYPWTFGQGTKVEIK | 0.024 nM | no binding | no binding | no binding | no binding | 0.024 nM |  |  |  | 

Continued, values first:

Kd (human ROR2 [1]) | binding result [2] | binding result [3] | binding result [4] | binding result (recombinant ROR1 [5]) | Kd (human ROR2 [6]) | binding result [7] | binding result [8] | binding result [9] | binding result (recombinant ROR1 [10]) | Binder
0.348 nM | no binding | no binding | no binding | no binding | 0.348 nM |  |  |  |  | h6E6-116 (antibody, human IgG1, V domains shown, human IgG1; Alexa647 conjugate in flow cytometry) VH: EVQLVESGGGLVKPGGSLRLSCAASGFTFSTYGVSWVRQAPGKGLEWVSTISSGGGYTHYAGSVKGRFTISRDNAKNSLYLQMNSLRAEDTAVYYCARHPRDFSYALDYWGQGTTVTVSS VL: EIVMTQSPATLSVSPGERATLSCRASQDVGHYLAWYQQKPGQAPRLLIYWASTRATGIPARFSGSGSGTEFTLTISSLQSEDFAVYYCQQYNIYPWTFGQGTKVEIK
0.38 nM | no binding | no binding | no binding | no binding | 0.38 nM |  |  |  |  | h6E6-072 (antibody, human IgG1, V domains shown, human IgG1; also called clone 72) VH: EVQLVESGGGLVKPGGSLRLSCAASGFTFSQYGHSWVRQAPGKGLEWVSTISSGGGYTHYADSVKGRFTISRDNAKNSLYLQMNSLRAEDTAVYYCARHPRDFSYAQDYWGQGTTVTVSS VL: EIVMTQSPATLSVSPGERATLSCKASQDVGHYLAWYQQKPGQAPRLLIYWASTRHTGIPARFSGSGSGTEFTLTISSLQSEDFAVYYCQQYNIYPWTFGQGTKVEIK
0.155 nM | no binding | no binding | no binding | no binding | 0.155 nM |  |  |  |  | h6E6-077 (antibody, human IgG1, V domains shown, human IgG1; also called clone 77) VH: EVQLVESGGGLVKPGGSLRLSCAASGFTFSHYGTSWVRQAPGKGLEWVSTISSGGGYTHYAPSVKGRFTISRDNAKNSLYLQMNSLRAEDTAVYYCARHPRDFSYAIDYWGQGTTVTVSS VL: EIVMTQSPATLSVSPGERATLSCKASQDVGHYVAWYQQKPGQAPRLLIYWASTRATGIPARFSGSGSGTEFTLTISSLQSEDFAVYYCQQYNIYPWTFGQGTKVEIK
0.165 nM | no binding | no binding |  | no binding | 0.165 nM |  |  | no binding |  | h6E6-070 (antibody, human IgG1, V domains shown, human IgG1; Alexa647 conjugate in flow cytometry; also called clone 70) VH: EVQLVESGGGLVKPGGSLRLSCAASGFTFSQYGHSWVRQAPGKGLEWVSTISSGGGYTHYAHSVKGRFTISRDNAKNSLYLQMNSLRAEDTAVYYCARHPRDFSYANDYWGQGTTVTVSS VL: EIVMTQSPATLSVSPGERATLSCRASQDVGHYLAWYQQKPGQAPRLLIYWASTRATGIPARFSGSGSGTEFTLTISSLQSEDFAVYYCQQYNIYPWTFGQGTKVEIK
0.319 nM | no binding | no binding | no binding | no binding | 0.319 nM |  |  |  |  | h6E6-102 (antibody, human IgG1, V domains shown, human IgG1; also called clone 102) VH: EVQLVESGGGLVKPGGSLRLSCAASGFTFSKYGLSWVRQAPGKGLEWVSTISSGGGYTHYVESVKGRFTISRDNAKNSLYLQMNSLRAEDTAVYYCARHPRDFSYASDYWGQGTTVTVSS VL: EIVMTQSPATLSVSPGERATLSCKASQDVGHYVAWYQQKPGQAPRLLIYWASTRATGIPARFSGSGSGTEFTLTISSLQSEDFAVYYCQQYNIYPWTFGQGTKVEIK
0.422 nM | no binding | no binding | no binding | no binding | 0.422 nM |  |  |  |  | h6E6-107 (antibody, human IgG1, V domains shown, human IgG1; also called clone 107) VH: EVQLVESGGGLVKPGGSLRLSCAASGFTFSTYGASWVRQAPGKGLEWVSTISSGGGYTHYAPSVKGRFTISRDNAKNSLYLQMNSLRAEDTAVYYCARHPRDFSYALDYWGQGTTVTVSS VL: EIVMTQSPATLSVSPGERATLSCKASQDVGHYVAWYQQKPGQAPRLLIYWASTRATGIPARFSGSGSGTEFTLTISSLQSEDFAVYYCQQYNIYPWTFGQGTKVEIK
